Reference: article PMC5498717

Target: GST
Experiment: cross-linking; BS3 0.25 mM, 15 min at RT in PBS with 1 mM DTT, proteins mixed about 1:1; SDS-PAGE, anti-His and anti-GST Western blots

Sequence of GST (natural protein) (P08515 2-218): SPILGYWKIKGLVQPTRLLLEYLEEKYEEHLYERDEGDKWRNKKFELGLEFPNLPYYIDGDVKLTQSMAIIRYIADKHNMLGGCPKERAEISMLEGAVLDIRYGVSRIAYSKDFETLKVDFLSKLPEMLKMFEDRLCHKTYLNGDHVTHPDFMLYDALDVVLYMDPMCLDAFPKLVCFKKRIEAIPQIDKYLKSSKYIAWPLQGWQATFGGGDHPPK

## GST (natural protein)
  stoichiometry N: 2
